“And” between values parts separate entries of the source, which are not always exact repeats. Identical values can stand only once.
Target: maltose binding protein MalE from E. coli (Escherichia coli, UniProt P0AEX9 27-396 = MBP)

B1: DarpOff7(wt) (designed binder)
chain: MRGSHHHHHHGSDLGRKLLEAARAGQDDEVRILMANGADVNAADNTGTTPLHLAAYSGHLEIVEVLLKHGADVDASDVFGYTPLHLAAYWGHLEIVEVLLKNGADVNAMDSDGMTPLHLAAKWGYLEIVEVLLKHGADVNAQDKFGKTAFDISIDNGNEDLAEILQKLN
B1 was tested, and the Kd was 11 nM and 5.6 nM.

From patent EP2103936A1 (Institut Pasteur, dated 2009)
